# Source: patent publication US20250289896A1 (ANALYTICAL BIOSCIENCES SHANGHAI, published 2025)
# Positions count from the first letter of the chain named. Names and notes keep the numbering of the source.
# T1: mCCR8 (UniProt P56484 1-353, limits assumed)
# T1 construct: whole, on cells; also called 293T-mCCR8
# T1 sequence (looked up): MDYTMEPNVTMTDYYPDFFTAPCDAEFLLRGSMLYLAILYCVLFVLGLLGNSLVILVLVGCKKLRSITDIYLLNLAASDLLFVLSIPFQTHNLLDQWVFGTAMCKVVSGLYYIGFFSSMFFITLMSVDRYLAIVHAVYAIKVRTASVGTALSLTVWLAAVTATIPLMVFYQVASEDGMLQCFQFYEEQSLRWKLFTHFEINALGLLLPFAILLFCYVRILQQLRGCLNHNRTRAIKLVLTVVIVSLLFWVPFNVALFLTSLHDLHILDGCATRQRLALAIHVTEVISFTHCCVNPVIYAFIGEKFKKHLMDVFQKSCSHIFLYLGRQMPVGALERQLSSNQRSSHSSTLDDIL
# B1: ABC814 (antibody, human IgG1, kappa, V domains shown)
# VH: EVQLVESGGGLVQPGRSLKLSCVASGFTFSDYYMAWVRQAPKKGLEWVASISYEGRSTYYGDSVKGRFTISRDDAKSTLYLQMNSLRSEDTATYYCARQDLYYGHKSYWYLDFWGPGTMVTVSS
# VL: DIVMTQSPTSMSISVGDRVTMNCKASQNVGSNVDWYQQKPGQSPKLLIYKTSSRSTGVPDRFTGSGSRTDFTFTITNMQAEDLAVYYCMQSNSYPFTFGAGTKLELKR
# B2: ABC818 (antibody, human IgG1, kappa, V domains shown)
# VH: B1 VH with V23A, S52T, E54A, R56S, S57K, K106N, S107P, L111F
# VL: B1 VL with P40T, S55F, T76S, V85L, M89V, F96Y
# B3: ABC823 (antibody, human IgG1, kappa, V domains shown)
# VH: EVQLVESGGGLVQPRRSLKLSCAASGFTFSDYYMAWVRQAPKKGLEWVASIGYEGSGVYYGDSVKGRFTISRDDAKSSLYLQMNSLRSEDTATYYCARQELYYGHNPYWYFDFWGPGTMVTVSS
# VL: B1 VL with P40T, S55F, R68K, D70A, T72S, T76S, F96Y
# B4: ABC820 (antibody, human IgG1, kappa, V domains shown)
# VH: EVQLVESGGGLVQPGRSLKLSCAASGFTFSDYYMAWVRQAPKKGLEWVASISYEGRSTYYGDSVKGRFTISRDDEKSILYLQMSGPRSEDTATYYCARQDLYYGRNPSWFLDFWGPGTMVTVSS
# VL: IVMTQSPTSMSISVGGRVTMNCKASQNVGSNVDWFQQKTGQSPKLLIYKTTSRYTGVPDRFTGSGSKTDFTFTISNMQAEDLAVYYCLQSNSFPYTFGAGTKLELKR
# B5: ABC527 (antibody, human IgG1, kappa, V domains shown)
# VH: EVQLVESGGGVVQPGRSLRLSCAASGFPFSFYGMAWVRQAPGKGLEWVASISYDGSDTYYRDSVKGRFTISRDNSKNTLYLQMNSLRAEDTAVYYCAKTSGYGSFDYWGQGTLVTVSS
# VL: DIVMTQTPLSLSVTPGQPASISCRSSRSLVHRNGDTYLHWYLQKPGQSPQLLIYRVSNRFAGVPDRFSGSGSGTDFTLKISRVEAEDVGVYYCLQGTHLPPTFGQGTKLEIKR
# B6: ABC815 (antibody, human IgG1, kappa, V domains shown)
# VH: VQLVESGGGLVQPGRSLKLSCAASGFTFSNYDMAWVRQVPTKGLEWVASVSPSAGTTYYRDSVKGRFTVSRDIAKSSLYLQMDSLRSEDTATYYCARHMIYRGYNYAVSYYVMDVWGQGASVTVSS
# VL: IQLTQSPSLLSASVGDRVTLTCKGSQNINSYLAWYQQKLGEAPKLLIYNTNSLQTGIPSRFSGSGSGTDYTLTISSLQPEDVATYFCYQYNNGYTWTFGGGTKLELKR
# B7: ABC819 (antibody, human IgG1, kappa, V domains shown)
# VH: EVQLVESGGGLMQPRRSLKLSCAASGFPFSDYNMAWVRQAPKKGLEWVASITYAGTKTYYGDSVKGRFTISRDDAKSTLYLQMNSLRSEDTATYYCARQDLYYGRNQYWYLDFWGPGTMVTVSS
# VL: DIVMTQSPTSMSKSVGDRVTMSCKASQNVGSNVDWYQQKTGQSPKLLIYKTSSRFTGVPDRFTGSGSRTDFTFTISSMQAEDLALYYCVQSNSYPYTFGAGTKLELRT
# B8: ABC821 (antibody, human IgG1, kappa, V domains shown)
# VH: EVQLVESGGGLVQPGRSLKLSCVASGFTFNYYWMTWIRQAPGKGLEWVASITNTGDTTYYPDSVKGRFTISRHNAKSTLYLQMNSLRSEDTATYYCSRGDGGSSFWIAYWGQGTLVTVSS
# VL: DVVMTQTPVSLPVSLGGQASISCRSSQSLVHRSGNTYLHWYLQKPGQSPQLLIYRVSNRFSGGPDRFSGSGSGTTFTLKISRVEPEDLGDYYCLQTTHFPPTFGSGTKLEIKR
# B9: ABC531 (antibody, human IgG1, kappa, V domains shown)
# VH: EVQLVESGGGVVQPGGSLRLSCAASGFTFSNYGMHWIRQAPGKGLEWIAMIYSDSSKMFYTDTVKGRFTISRDNSKNTLYLQMNSLRAEDTAVYYCAARDYGYKGAHYYVMDAWGQGTTVTVSS
# VL: DIQMTQSPSSLSASVGDRVTITCKSSQNINRYLNWYQQKPGKAPKLLIYNANNLQTGIPSRFSGSGSGTDFTFTISSLQPEDIATYYCLQHKSWPYTFGQGTKLEIKR
# B10: ABC519 (antibody, human IgG1, kappa, V domains shown)
# VH: EVHLVESGGGFVRPGRSMKLSCAASGFPFSFYGMAWVLQTPTKGLEWVASISYDGSDTYYRDSVKGRFAISRDNAKNTLYLQMESLRSEDTATFYCAKTSGYGSFDYWGQGTLVTVSS
# VL: DIVMTQSPVSLPVSFGGQASISCRSSRSLVHRNGDTYLHWYLQKPGQSPQLLIYRVSNRFAGVPDRFSGSGSGTDFTLKISRVESEDLGLYYCLQGTHLPPTFGSGTKLEIKR
# B11: ABC816 (antibody, human IgG1, kappa, V domains shown)
# VH: AVQLVESGGGLVQPKESLKISCAASGFTFSNAAMYWVRQAPGKGLEWVARIRTKPNNYATYYADSVKGRFTISRDDSKSMVYLQMDNLKTEDTAMYYCTAAVYSSYGYFDYWGQGVMVTVSS
# VL: DIQMTQSPASLSASLEEIVTITCQASQNNGNWLAWYQQKPGKSPQLLIYGTTNLADGVPSRFSGSRSGTQYSLKISRLQVEDIGIYYCQQASSTPWTFGGGTKLELKR
# B12: ABC523 (antibody, human IgG1, kappa, V domains shown)
# VH: EVKLVESGGGLVQPGNSLTLSCVASGFTFSNYGMHWIRQAPKKGLEWIAMIYSDSSKMFYTDTVKGRFTISRDNSKNTLYLEMNSLRSEDTAMYYCAARDYGYKGAHYYVMDAWGQGASVTVSS
# VL: DIQMTQSPSFLSASVGDRVTIICKSSQNINRYLNWYQQKLGEAPKLLIYNANNLQTGIPSRFSGGGSGTDFTFTIGSLRPEDVATYFCLQHKSWPYTFGPGTKLELKR
# B13: ABC137-H2.hu12.IgG1.SDIE (antibody, V domains shown)
# VH: EVQLVESGGGLVQPGGSLRLSCAASGFPFNTFAMNWVRQAPGKGLEWLARIRSKSNNYATYYADSVKDRFTISRDNAKRSLYLQMNSLRAEDTAVYYCVRGKENNYGYAMDYWGQGTTVTVSS
# VL: DIVMTQSPLSLPVTPGEPASISCRSSKSLLHSNGNTYLYWFLQKPGQSPQLLIYRMSNLASGVPDRFSGSGSGTDFTLKISRVEAEDVGVYYCMQHVEYPFTFGGGTKLEIKR
# notes: Parental clone ABC025.H2G.SDIE; IgG1 with SDIE mutations
# B14: H2I (antibody, human IgG1, kappa, V domains shown)
# VH: B13 VH with K78R
# VL: B13 VL with K27Q, G34A, V97L, G105Q
# B15: ABC051-B1.hu14.IgG1.SDIE (antibody, V domains shown)
# VH: EVQLVESGGGLVQPGGSLKLSCAASGFTFNTYAMNWVRQASGKGLEWVARIRSKSNNYATYYADSVKDRFTISRDDSKNTLYLQMNSLKTEDTAVYYCVREVRRDYALDQWGQGTMVTVSS
# VL: B13 VL with G34A
# notes: IgG1 with SDIE mutations, by its name
# B16: H2B (antibody, human IgG1, kappa, V domains shown)
# VH: B13 VH
# VL: B13 VL with K27Q, V97L, G105Q
# B17: ABC049-B1.hu12.IgG1.SDIE (antibody, V domains shown)
# VH: B15 VH
# VL: B13 VL with N33Q
# notes: as for B15
# B18: H2C (antibody, human IgG1, kappa, V domains shown)
# VH: B13 VH with K78R
# VL: B13 VL with K27Q, V97L, G105Q
# B19: H2A (antibody, human IgG1, kappa, V domains shown)
# VH: B13 VH with R79N
# VL: B13 VL with K27Q, V97L, G105Q
# B20: ABC050-B1.hu13.IgG1.SDIE (antibody, V domains shown)
# VH: B15 VH
# VL: B13 VL with N33S
# notes: as for B15
# Target: T2, Human CCR8 (C-C chemokine receptor type 8) (human, UniProt P51685 1-355)
# T2 construct: overexpressed on HEK293T (293T-hCCR8), Jurkat-hCCR8 and CHEM1-CCR8 cells; also called hCCR8
# Experiment: flow cytometry, 293T cells overexpressing human CCR8
# Protocol: (§1) Binding specificity of the anti-CCR8 antibodies (mAbs) was tested by FACS using several cell lines. […] The binding titration of the anti-CCR8 antibodies to CCR8 transfectants was performed by serial dilution of antibodies. The diluted antibody (50 μl) in flow cytometry buffer (PBS, 0.5% BSA, 1 mM EDTA) was incubated with cells (50 μl) at a concentration of 2 million cells/ml on ice for 30 min. After two washes with flow cytometry buffer, bound antibody was detected with Alexa647-labeled F(ab′)2 fragment goat anti-human IgG (Jackson ImmunoResearch #709-606-149) (1:500 dilution) for 20 minutes on ice. The fluorescence was measured on a Cytek Aurora cytometer, after two washes with flow cytometry buffer. The data were analyzed with GraphPad Prism 8.0 software to determine EC50 values.
# T2 sequence (P51685 whole entry): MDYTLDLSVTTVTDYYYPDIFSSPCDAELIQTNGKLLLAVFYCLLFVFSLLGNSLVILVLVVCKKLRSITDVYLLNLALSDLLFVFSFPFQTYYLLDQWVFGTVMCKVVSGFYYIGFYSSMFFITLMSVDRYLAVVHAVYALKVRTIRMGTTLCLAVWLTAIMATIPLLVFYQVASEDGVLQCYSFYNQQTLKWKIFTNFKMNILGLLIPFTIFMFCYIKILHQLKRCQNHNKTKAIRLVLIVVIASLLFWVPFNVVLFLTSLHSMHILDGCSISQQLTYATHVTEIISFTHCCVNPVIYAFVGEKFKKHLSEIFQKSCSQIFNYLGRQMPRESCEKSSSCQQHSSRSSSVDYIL
EC50,binding result,Binder
0.0828 nM,–,B1
0.744 nM,–,B2
1.51 nM,–,B3
0.103 nM,–,B4
1.74 nM,–,B5
6.47 nM,–,B6
8.51 nM,–,B7
–,no binding,B8
1.44 nM,–,B9

# Target: T3, cynomolgus macaque CCR8 (cynomolgus macaque, UniProt G7NYJ2 1-355)
# T3 construct: whole, on cells; Overexpressed on 293T cells (293T-cCCR8) and Jurkat cells (Jurkat-cynoCCR8); also called cCCR8; cyno CCR8
# Experiment: flow cytometry, 293T cells overexpressing cynomolgus CCR8
# Protocol: as §1
# T3 sequence (G7NYJ2 entry or part of it): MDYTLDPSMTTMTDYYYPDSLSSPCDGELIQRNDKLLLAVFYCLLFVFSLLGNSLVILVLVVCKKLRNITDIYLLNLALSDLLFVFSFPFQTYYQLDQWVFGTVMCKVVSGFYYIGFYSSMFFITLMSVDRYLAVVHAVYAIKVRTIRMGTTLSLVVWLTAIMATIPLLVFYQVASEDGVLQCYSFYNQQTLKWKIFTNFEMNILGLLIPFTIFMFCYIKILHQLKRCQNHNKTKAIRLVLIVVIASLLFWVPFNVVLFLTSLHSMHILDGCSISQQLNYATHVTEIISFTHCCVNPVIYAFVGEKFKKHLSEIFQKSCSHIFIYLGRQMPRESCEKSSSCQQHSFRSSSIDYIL
EC50,binding result,Binder
0.101 nM,–,B1
0.537 nM,–,B2
0.884 nM,–,B3
0.09 nM,–,B4
2.14 nM,–,B5
6.47 nM,–,B6
0.25 nM,–,B10
7.11 nM,–,B7
–,no binding,B8
–,no binding,B11
0.554 nM,–,B9
0.26 nM,–,B12

# Target: T1, mCCR8
# Experiment: flow cytometry, 293T cells with mCCR8
# Protocol: as §1
binding result,EC50,Binder
no binding,–,B1
no binding,–,B2
no binding,–,B3
no binding,–,B4
no binding,–,B5
no binding,–,B6
no binding,–,B10
no binding,–,B7
–,6.74 nM,B8
–,0.133 nM,B11
no binding,–,B9
no binding,–,B12

# Target: T2, Human CCR8 (C-C chemokine receptor type …)
# Experiment: flow cytometry on cells carrying human CCR8
row,binding result,Binder
1,binds,B13
2,binds,B14
3,binds,B15
4,binds,B16
5,binds,B17
6,binds,B18
7,binds,B19
8,binds,B20

# Target: T2, Human CCR8 (C-C chemokine receptor type …)
# Experiment: flow cytometry, Hut78 cells (endogenous human CCR8)
# Protocol: as §1
EC50,binding result,Binder
11.6 nM,–,B1
19.4 nM,–,B4
–,no binding,B10
–,no binding,B11
–,no binding,B12
